Data published in patent publication US8168587B2, “Combination enzyme replacement and small molecule therapy for treatment of lysosomal storage diseases” (Genezyme Corporation, priority 2000, dated 2012).

B1: α-galactosidase A: lysosomal enzyme deficient in Fabry disease, given as a single intravenous infusion for enzyme replacement (protein, UniProt P06280 32-429, looked up)
Alpha-galactosidase A: LDNGLARTPTMGWLHWERFMCNLDCQEEPDSCISEKLFMEMAELMVSEGWKDAGYEYLCIDDCWMAPQRDSEGRLQADPQRFPHGIRQLANYVHSKGLKLGIYADVGNKTCAGFPGSFGYYDIDAQTFADWGVDLLKFDGCYCDSLENLADGYKHMSLALNRTGRSIVYSCEWPLYMWPFQKPNYTEIRQYCNHWRNFADIDDSWKSIKSILDWTSFNQERIVDVAGPGGWNDPDMLVIGNFGLSWNQQVTQMALWAIMAAPLFMSNDLRHISPQAKALLQDKDVIAINQDPLGKQGYQLRQGDNFEVWERPLSGLAWAVAMINRQEIGGPRSYTIAVASLGKGVACNPACFITQLLPVKRKLGFYEWTSRLRSHINPTGTVLLQLENTMQMSLKDLL

Tested on: Fabry mice
Assay: Sequential enzyme replacement then small molecule therapy: GB3 re-accumulation in Fabry mouse liver
Description: In vivo efficacy of combination enzyme replacement therapy plus small molecule therapy in Fabry disease. […] Study protocol for sequential combination of enzyme (α-galactosidase A) replacement followed by small molecule administration (NB-DNJ, AMP-DNJ or D-t-et-P4) on globotriaosylceramide (GB3) re-accumulation in Fabry mice. […] Results of study protocol for Fabry mouse liver tissue. GB3 re-accumulation at four weeks (μg GB3 per gm liver tissue) is plotted on the ordinate versus absence of small molecule treatment (Vehicle) or daily intra-peritoneal small molecule therapy with D-t-et-P4 (at either 5 mg/kg or 0.5 mg/kg), NB-DNJ (at 500 mg/kg), or AMP-DNJ (at 100 mg/kg).
Fabry mice were used to test the in vivo efficacy of combining enzyme replacement therapy with small molecule therapy in a sequential treatment format (FIG. 1). The study was designed to evaluate whether substrate inhibition (i.e. “substrate deprivation therapy”) using small molecules of the DNJ and P4 types could reduce re-accumulation of the storage material globotriaosylceramide (GB3). The study protocol (FIG. 1A) called for a single infusion of α-galactosidase A enzyme to reduce GB3 levels (measured at two weeks) to a “Baseline” level in Fabry mouse liver. GB3 re-accumulation was then measured at four weeks in control mice receiving no small molecule therapy (“Vehicle”) and in mice receiving various small molecules at various doses. Accordingly, two weeks after GB3 levels were reduced to a “Baseline” level of about 0.1 μg/g liver (FIG. 1B), a small molecule or vehicle was administered by intra-peritoneal (IP) injection.

Molecule | GB3 re-accumulation in Fabry mouse liver tissue (5 mg/kg daily IP after single α-galactosidase A infusion, four week time point, vehicle about 0.8, baseline about 0.1) | Baseline GB3 level in Fabry mouse liver (two weeks after a single infusion of α-galactosidase A enzyme) | Baseline GB3 level in Fabry mouse liver (two weeks after a single α-galactosidase A intravenous infusion)
D-threo-1-(3′,4′-ethylenedioxy)phenyl-2-palmitoylamino-3-pyrrolidino-1-propanol [D-t-et-P4, reference compound] | less than 0.4 μg/gm |  | 
B1 |  | about 0.1 μg/g liver | about 0.1 μg/gm liver tissue
